Data: US12091776B2, “Protease activity profiling via programmable phage display of comprehensive proteome-scale peptide libraries” (THE JOHNS HOPKINS UNIVERSITY, priority 2019, dated 2024)

Legend:
Caspase-1 [1] = target: T1, Caspase-1 (Homo sapiens, UniProt P29466); experiment: SEPARATE assay: 56-amino acid mouse peptidome library digested with Caspase-1; format: biochemical; details: selected peptides, mouse library (56-aa tiles)
T1 construct: purchased BioVision
T1 sequence (P29466 120-297 limits assumed): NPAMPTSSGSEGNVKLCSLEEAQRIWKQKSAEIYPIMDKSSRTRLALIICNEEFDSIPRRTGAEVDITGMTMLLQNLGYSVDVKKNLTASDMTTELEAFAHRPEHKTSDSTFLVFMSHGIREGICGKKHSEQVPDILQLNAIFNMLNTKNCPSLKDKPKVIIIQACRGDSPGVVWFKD
T1 sequence (P29466 317-404 limits assumed): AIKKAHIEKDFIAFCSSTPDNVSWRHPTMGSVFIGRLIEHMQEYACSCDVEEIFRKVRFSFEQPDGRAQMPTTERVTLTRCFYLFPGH
Procedure: (§1) Streptavidin-coupled magnetic beads (Dynabeads M-280 Streptavidin, ThermoFisher Scientific) were washed (TBS, pH 7.4, 0.01% NP40) and resuspended in binding buffer (TBS, pH 7.4, 0.001% NP40) containing 2E9 plaque forming units per 10 μl of bead slurry. End-over-end mixing at room temperature was performed for one hour. Phage-coated beads were washed three times with wash buffer and transferred into two protein LoBind Eppendorf tubes blocked with TBS, pH 7.4 containing 1% BSA.
Digestion occurred overnight at room temperature with end-over-end rotation. […] To remove any residual biotinylated phage that may have been nonspecifically released, the 150 μl supernatant of the quenched digest reaction is then incubated with a fresh 10 μl of slurry volume M280 streptavidin beads (pre-washed three times with wash buffer) in a LoBind Eppendorf tube blocked with TBS, pH 7.4 containing 1% BSA at room temperature for one hour with end-over-end rotation.
10 μl slurry volume of protein G magnetic dynabeads were washed in buffer (TBS, pH 7.4, 0.01% NP40) and then resuspended in 50 μl TBS, pH 7.4, 0.01% NP40 containing 4 μg of M2 FLAG antibody for thirty minutes at room temperature with end-over-end rotation. The 150 μl quenched digest reaction is added to the 10 μl FLAG-coated Protein G beads and incubated for 60 minutes at room temperature with end-over-end rotation to capture phage particles released at the protease digest step. Beads are rinsed once with 100 μl wash buffer and stored at −80° C. until PCR amplification.
Library PCR preparation, high-throughput DNA sequencing, and peptide read count data generation was performed as described previously.^44 Briefly, library peptide inserts are amplified by resuspending 10 μl of FLAG-coated Protein G beads in PCR1 master mix containing the T7-Pep2_PCR1_F forward primer ([…]) (SEQ ID NO:3) and a T7-SEPARATE vector specific reverse primer ([…]) (SEQ ID NO:4), which includes an adapter sequence for sample-specific barcoding and Illumina P7 adapter incorporation during a subsequent PCR2 reaction. The PCR2 amplicons are pooled and sequenced using an Illumina NextSeq instrument in standard output mode to obtain single-end 50 nucleotide reads. Dual indexed sample demultiplexing and clonal read count determination were performed using exact sequence matching. […] To calculate the normalization factor, 100 peptides were randomly selected from the mock digest conditions with a read count ranging between 10 and 40. The median read count value for these 100 peptides is calculated for each sample. The random peptide selection and median calculation is performed 20 times and the average of the 20 median values is calculated for each sample. Finally, the normalization factor is calculated by dividing the average median value for each sample by that for one of the mock digest conditions. Read counts are then converted to normalized read counts by dividing each sample's read count values by the normalization factor. Fold enrichments are calculated for each peptide by dividing their normalized read counts in the digest condition by the normalized read counts in the mock digest condition. The fold enrichments can be visualized in an MA plot by transforming the normalized read count data into a log ratio (M, on the y-axis) and a mean average (A, on the x-axis) between the digest and mock digest conditions.
The performance of the SEPARATE assay is expected to depend on protease-substrate requirements as well as biophysical features of the peptide library. The present inventors have verified by PCR and Sanger sequencing that 90% of the immobilized human library lacks in-frame mutations. […] To explore this further, a 56-amino acid mouse peptidome library (unpublished) was used in which both IL-1β and Gasdermin-D cleavage peptides are better represented. […] Mouse IL-1β and Gasdermin-D are highly similar to the human versions and can serve as substrates for human Caspase-1. […]

Caspase-1 [2] = target: T1, Caspase-1; experiment: SEPARATE assay: human peptidome library digest with Caspase-1; format: biochemical; details: unstimulated THP-1 cell lysate supplemented with 0.1 units of recombinant Caspase-1
Procedure: as §1
Digestion occurred overnight at room temperature with end-over-end rotation. […]
Library PCR preparation, high-throughput DNA sequencing, and peptide read count data generation was performed as described previously.^44 Briefly, library peptide inserts are amplified by resuspending 10 μl of FLAG-coated Protein G beads in PCR1 master mix containing the T7-Pep2_PCR1_F forward primer ([…]) (SEQ ID NO:3) and a T7-SEPARATE vector specific reverse primer ([…]) (SEQ ID NO:4), which includes an adapter sequence for sample-specific barcoding and Illumina P7 adapter incorporation during a subsequent PCR2 reaction. The PCR2 amplicons are pooled and sequenced using an Illumina NextSeq instrument in standard output mode to obtain single-end 50 nucleotide reads. Dual indexed sample demultiplexing and clonal read count determination were performed using exact sequence matching. […]

endogenous Caspase-1 = target: T2, endogenous Caspase-1 (Homo sapiens, UniProt P29466); experiment: In vitro stimulation of the inflammasome in THP-1 cells (Western blot); format: cell-based; details: PMA differentiated THP-1 cells, LPS and Nigericin
T2 construct: endogenous in cells; host or cells: PMA-differentiated THP-1 cells
T2 sequence (P29466 120-404): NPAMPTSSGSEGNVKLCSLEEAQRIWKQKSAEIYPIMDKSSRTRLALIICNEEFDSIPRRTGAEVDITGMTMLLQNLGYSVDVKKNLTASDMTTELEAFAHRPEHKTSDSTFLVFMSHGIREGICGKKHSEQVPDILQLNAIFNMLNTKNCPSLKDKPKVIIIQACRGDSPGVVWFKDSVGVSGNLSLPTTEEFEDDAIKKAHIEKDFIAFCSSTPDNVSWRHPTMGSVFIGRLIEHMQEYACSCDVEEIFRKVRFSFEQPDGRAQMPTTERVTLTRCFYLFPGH
Procedure: THP-1 cells were cultured in RPMI-1640 media with Glutamax (Gibco, ThermoFisher, Cat #61870127), supplemented with 10% FBS (Hyclone SH30071, GE Life Sciences), and 1× Antibiotic-Antimycotic (Gibco, ThermoFisher, Cat #15240062), referred to as complete RPMI. To differentiate THP-1 cells into macrophages, 1×10^6 THP-1 cells were added per well of a 6-well plate in complete RPMI medium containing 50 ng/ml Phorbol 12-myristate 13-acetate (PMA, diluted in RPMI medium from a 1 mg/ml PMA stock in DMSO, Millipore Sigma, Cat. No. P1585). After 48 hours when the cells become adherent, the medium with PMA was removed, cells washed in 1×PBS once, and fresh complete RPMI was added. Cells were allowed to rest for an additional 24 hours before inflammasome activation with LPS and Nigericin.
A 6-well plate of PMA differentiated THP-1 cells were treated with 0, 1 or 0.1 μg/ml LPS (Millipore Sigma, Cat. No. LPS25) for 3.5 hours. After 3.5 hours, cells were treated with 2.5 μM Nigericin for an additional 30 minutes to activate the inflammasome. Cells were washed in 1×PBS and lysed in 1× mammalian cell extraction buffer (BioVision, Cat. No. K269) containing 2 μM Dithiothreitol (DTT). Nuclei were spun down by centrifugation (10,000 rpm, 5 minutes, 4° C.) and the cleared supernatant was used to perform Western blots. […]

Caspase-1 [3] = target: T1, Caspase-1; experiment: HUWE1 cleavage assay using recombinant Caspase-1 in THP-1 lysate (Western blot); format: biochemical; details: recombinant Caspase-1 added to unstimulated THP-1 cell lysates; time-dependent
Procedure: Recombinant Caspase-1 (rCaspase-1) was diluted to 0.1 U/μl in 1× mammalian cell extraction buffer containing 2 μM Dithiothreitol (DTT). This buffer preserves enzymatic activity of proteases. Unstimulated, PMA differentiated THP-1 cells were also lysed in 1× mammalian cell extraction buffer with 200 μl of buffer to lyse one well of a 6-well plate (˜1×10^6 cells). Protease digests were set up with 50 μl of lysate (˜250,000 cells).
30 μl of protein lysates were mixed with 10 μl of 4× NuPage LDS sample loading buffer (Thermo Fisher, Cat. No. NP0007, final concentration to 1×). 4-12% NuPage Bis-Tris gels (Thermo Fisher, Cat. No. NP0321) were loaded with 35 μl of each sample along with high molecular weight standards (HiMark protein ladder, Thermo Fisher, Cat. No. LC5699) and resolved in 1× NuPAGE™ MES SDS Running Buffer (Thermo Fisher, Cat. No. NP0002) at 150V for 50-60 minutes. After suitable resolution of proteins, the gels were transferred to a PVDF membrane by the ‘wet transfer’ method using 1× NuPage transfer buffer (Thermo Fisher, Cat. No. NP00061) overnight at 4° C., 50 mA constant current. After transfer is complete, the membranes were washed in 1× tris buffered saline containing 0.01% Tween-20 (TBS-T), blocked for 30 minutes with 5% milk in TBS-T and probed with primary antibodies and HRP conjugated secondary antibodies with TBS-T washing in between. […]

Thrombin = target: T3, Thrombin (Homo sapiens, UniProt P00734); experiment: SEPARATE assay: human peptidome library digest with Thrombin; format: biochemical; details: human library, Thrombin
T3 construct: Thrombin (a serine protease); purchased SignalChem
Procedure: The PCR2 amplicons are pooled and sequenced using an Illumina NextSeq instrument in standard output mode to obtain single-end 50 nucleotide reads. Dual indexed sample demultiplexing and clonal read count determination were performed using exact sequence matching. […] To calculate the normalization factor, 100 peptides were randomly selected from the mock digest conditions with a read count ranging between 10 and 40. The median read count value for these 100 peptides is calculated for each sample. The random peptide selection and median calculation is performed 20 times and the average of the 20 median values is calculated for each sample. Finally, the normalization factor is calculated by dividing the average median value for each sample by that for one of the mock digest conditions. […]

| Substance | Caspase1 fold change (Caspase-1 [1]) | further results |
| --- | --- | --- |
| HECT, UBA and WWE Domain Containing E3 Ubiquitin Protein Ligase 1 [HUWE1] | – | enrichment in SEPARATE on a complex biological mixture (Caspase-1 [2]): among the most significantly enriched targets; cleavage by endogenous Caspase-1 upon inflammasome activation (Western blot) (endogenous Caspase-1): cleavage; cleavage of endogenous HUWE1 (Western blot) (Caspase-1 [3]): robust cleavage |
| HUWE1 2291-2347: 56-amino acid mouse peptidome library peptide of HUWE1 (QDPGEPGEAEVQEEDHDVTQTEVADGDIMDGEAETDSVVIAGQPEVLSSQEMQVENE; UniProt Q7TMY8 2291-2347, looked up, fragment) | 6.13 fold | – |
| GSDMD 222-278: 56-amino acid mouse peptidome library peptide of Gasdermin-D (LLIGSKWDILLVSDEKQRTFEPSSGDRKAVGQRHHGLNVLAALCSIGKQLSLLSDGI; UniProt Q9D8T2 222-278, looked up, fragment) | 4.23 fold | – |
| Fibrinogen | – | scoring in the SEPARATE assay (Thrombin): did not score |
| IL1B 74-130: 56-amino acid mouse peptidome library peptide of IL-1β (WQLPVSFPWTFQDEDMSTFFSFIFEEEPILCDSWDDDDNLLVCDVPIRQLHYRLRDE; UniProt P10749 74-130, looked up, fragment) | 13.23 fold | – |

Second part, led by results:

| Caspase1 fold change (Caspase-1 [1]) | Substance | further results |
| --- | --- | --- |
| 8.10 fold | IL1B 0-56: 56-amino acid mouse peptidome library peptide of IL-1β (MATVPELNCEMPPFDSDENDLFFEVDGPQKMKGCFQTFDLGCPDESIQLQISQQHI; UniProt P10749 1-56, looked up, fragment) | – |
| 8.80 fold | IL1B 75-131: 56-amino acid mouse peptidome library peptide of IL-1β (QLPVSFPWTFQDEDMSTFFSFIFEEEPILCDSWDDDDNLLVCDVPIRQLHYRLRDEQ; UniProt P10749 75-131, looked up, fragment) | – |
| 6.78 fold | GSDMD 259-315: 56-amino acid mouse peptidome library peptide of Gasdermin-D (NVLAALCSIGKQLSLLSDGIDEEELIEAADFQGLYAEVKACSSELESLEMELRQQIL; UniProt Q9D8T2 259-315, looked up, fragment) | – |
| 23.12 fold | HUWE1 2328-2384: 56-amino acid mouse peptidome library peptide of HUWE1 (VVIAGQPEVLSSQEMQVENELEDLIDELLERDGGSGNSTIIVSRSGEDESQEDVLMD; UniProt Q7TMY8 2328-2384, looked up, fragment) | – |
